{"source": "patent CN111662379A", "key": {"[1]": {"molecular_target": "T1, 重组SARS-CoV-2刺突蛋白胞外区 (extra cellular domain of spike protein, S-ECD) (SARS-CoV-2), P0DTC2", "assay": "indirect ELISA, S-ECD coated at 1μg/ml", "settings": "remark: other sources report otherwise"}, "[2]": {"molecular_target": "T1, 重组SARS-CoV-2刺突蛋白胞外区 (extra cellular …)", "assay": "SPR, Biacore 8K, S-ECD immobilised on a CM5 chip, antibody injected at 125nM~7.8nM", "settings": "remark: other sources report otherwise"}}}
{"binder": "FC05 (antibody) chain 1: EVQLLEQSGAEVKKPGASVRVSCKVSGYTLPEVAMHWVRQAPGKGLEWMGGFDPEDGETIYAQKFQGRVTMTEDTSTDTAYMELSSLRSEDTAVYYCATTTPFSSSFWFDPWGQGTLVTVSS chain 2: QSVLTQAPSVSGAPGQKVTISCSGSSSNIGNNYVSWYQQLPGTAPKLLIYDNNKRPSGIPDRFSGSKSGTSATLGITGLQTGDEADYYCGTWDSSLSAVVFGGGTKLTVL", "values": [{"measurement": "抗体滴度 (dilution 1:x from 1mg/mL)", "setting": "[1]", "value": 320000}, {"measurement": "Kd", "setting": "[2]", "value": 0.1, "unit": "nM"}]}
